The values that follow come from patent publication US7932226B2, “NFκB transcriptional activity inhibitory agent and anti-inflammatory agent and a steroid action enhancing agent” (St. Marianna University School of Medicine, priority 2004, dated 2011).

The test system of data set [1] is transcriptional activity of NFκB. In words: NFκB-dependent luciferase assay in transfected COS-7 cells, TNFα-induced. Format: cell-based. How it is done:
COS-7 cells were plated into a 6-well plate (Falcon, catalog number: 35-3046) at 3.5 to 3.8×10^5 cells per well and cultured in a DMEM supplemented with 10% 56° C.-inactivated FBS (fetal bovine serum; HyClone, catalog number: SH30070.03) under the conditions of 5% CO2 and 37° C. After 18 hours, the medium was replaced with a DMEM containing charcoal-dextran treated (C/D treatment) FBS (C/D-FBS, HyClone, catalog number: SH30068.03). Each of the plasmids constructed in Example 2 was mixed as shown in Table 1 and each sample was prepared to be 4.12 μg and each was mixed with TransFast (product name) reagent (12.3 μl) and the mixture was incubated for 10 to 15 minutes. After the medium in each well was replaced, each plasmid DNA was added to the respective wells according to the amount shown in Table 1 and incubation was carried out for 1 hour, thus each DNA was transfected into COS-7 cells. The transfection efficiency was 34%. To the cells into which DNA was transfected as described above, after 24 hours, an inflammatory cytokine (TNFα, Sigma) at a final concentration of 1 ng/ml and a steroid agent (triamcinolone acetonide: TA, Sigma) at a final concentration of 120 nM were added. Further, after an additional 24 hours, luciferase activities in the cells were assayed using Dual Luciferase Assay System (Promega) by a luminometer (Turner BioSystems TD-20/20, Promega). The results are shown in FIG. 1, In FIG. 1, the luciferase activities indicating the transcriptional activity of NFκB is indicated on the vertical axis. The closed circles show the case where only TNFα was added, the closed triangles show the case where both TNFα and TA were added, the open triangles show the case where only TA was added and the open circles show the case where neither of TNFα nor TA was added, respectively.

The test system is the same in data set [2]. The experiment in a line: NFκB luciferase assay in HeLa cells with added His-tag-TAT-MTI-II protein. It is filed as cell-based. The conditions noted are these: protein 30-300 μg per well added 6 hours before TNFα 1 ng/ml. The procedure: HeLa cells were plated into a 6-well plate at 2.0×10^5 cells per well and cultured in a DMEM (HyClone) supplemented with 10% FBS (fetal bovine serum) for 18 hours. Thereafter, the medium was replaced with a medium containing charcoal-dextran treated (C/D treatment) FBS (C/D-FBS). Further, after an additional 24 hours, each plasmid DNA blended in accordance with the amount shown in the following Table 2 was added to the respective wells, and these HeLa cells were transfected with NFκB-Luc gene.
At 24 hours after the transfection, to the HeLa cells in each well, the His-tag-TAT-MTI-II fusion protein prepared in Example 7 was added according to the amount shown in Table 3, and 6 hours thereafter, an inflammatory cytokine (TNFα, Sigma) was further added thereto in an amount to give a concentration of 1 ng/ml. After 24 hours, in the same manner as in Example 4, luciferase activities in the cells were assayed using Dual Luciferase Assay System (Promega).

A short description of data set [3]: OVA-sensitized rabbit knee joint inflammation model. It is filed as in vivo, New Zealand White rabbits. The conditions noted are these: rabbits, 0.4 mg/ml in PBS into the right knee joint, 10 administrations in 14 days. How it is done:
For primary sensitization, ovalbumin (OVA)+Freund's complete adjuvant (FCA) was intradermally injected once in the dorsal area of three New Zealand White rabbits. After 2 weeks, for secondary sensitization, OVA+FCA was intradermally administered once in the dorsal area. Further, for challenge administration, at 5 days after the secondary sensitization, OVA was administered once into the right knee joint. A His-tag-TAT-MTI-II solution (at 0.4 mg/ml in PBS solution) was administered into the right knee joint every other day starting from one day before the challenge administration of OVA. Incidentally, during 5 days from the next day of the challenge administration of OVA, the His-tag-TAT-MTI-II solution was administered once daily. The administration period was 14 days (number of administration: 10 times in total), and in a control group, PBS was administered into the right knee joint. An anti-inflammatory action was examined based on the blood sedimentation rate measurement and the pathological specimens of both knee joints.

Data set [4] in a line: MTI-II peptide administration experiment (behaviour and autopsy observation). Format: in vivo. Particulars: 10 mg/kg intraperitoneal, ICR mice. How it is done:
MTI-II of SEQ ID NO: 1 (Gene Bank Accession No. M24398) was purified in accordance with the purification method described in the document (Eur. J. Biochem., (2000), 267, 155-162). It was dissolved in physiological saline at a concentration of 1.0 mg/ml and intraperitoneally administered to 5 male (an average body weight of 28.4 g) and 5 female (an average body weight of 25.0 g) ICR mice at 5 weeks of age at 10 mg/kg of body weight. As a control, physiological saline was administered to 2 male and 2 female ICR mice of the same age. […] At 24 hours after the administration, they were sacrificed and autopsy was carried out and the swelling of the liver, kidney, spleen, small intestine, large intestine and thymus and the swelling of the blood vessels in the abdominal cavity were observed by the naked eye. As a result, behavioral anomaly and the swelling of the liver, kidney, spleen, small intestine, large intestine, thymus and blood vessels were not observed in all specimens.

Data set [5] deals with transcriptional activity of NFκB. In words: NFκB luciferase assay in the presence of coactivator p300. It is filed as cell-based. The procedure:
Then, in order to confirm the action site of MTI-II, the effect of MTI-II was investigated when a coactivator p300, which acts on the transcriptional activity of NFκB, was expressed.
A coactivator p300 expression plasmid (pCMVβ-p300) was purchased from Upstate. DNA transfection was carried out in the same manner as in Example 3 except that the amount of DNA was each 2.0 μg and the amount of pTri-NC or pTri-MTI was 1.0 μg. The NFκB transcriptional activity assay was carried out in the same manner as in Example 4.

As for TNFα [reference compound], the “luciferase activity (transcriptional activity of NFκB) versus no TNFα” value in data set [1] (TNFα 1 ng/ml only, MTI-II 0 μg) was “about 10 times”.

B1: His-tag-TAT-MTI-II: His-tag-TAT-MTI-II fusion protein (SEQ ID NO: 11) expressed in E. coli (protein)
chain: MAHHHHHHSLVPRGSRRRQRRKKRGLQMSEKSVEAAAELSAKDLKEKKDKVEEKAGRKERKKEVVEEEENGAEEEEEETAEDGEDDDEGDEEDEEEEEEEDEGPVRKRTAEEEDEADPKRQKTENGASA
modifications: HisTag-TAT-MTI-II
As to B1, in data set [2], the “transcriptional activity of NFκB” value is on record as “inhibited depending on the amount of TAT-MTI-II”. Further, in data set [3], the “anti-inflammatory action (blood sedimentation rate, pathological specimens of knee joints)” value is “anti-inflammatory effect”.

B2: MTI-II: 102 amino acid polypeptide (SEQ ID NO: 2), same sequence as parathymosin; encoded by SEQ ID NO: 1 (protein, listed as Homo sapiens)
chain: MSEKSVEAAAELSAKDLKEKKDKVEEKAGRKERKKEVVEEEENGAEEEEEETAEDGEDDDEGDEEDEEEEEEEDEGPVRKRTAEEEDEADPKRQKTENGASA
Consider B2, for which, in data set [4] (autopsy at 24 hours, naked eye), the “swelling of the liver, kidney, spleen, small intestine, large intestine, thymus and blood vessels” value is “not observed”. Besides, in data set [4] (observed for 24 hours), the behavioral anomaly result was “not observed”. Besides, in data set [1] (TNFα 1 ng/ml, MTI-II expressed (0-3.0 μg vector)), the “transcriptional activity of NFκB” value is reported as “inhibited depending on the amount of MTI-II”. Also, the NFκB transcriptional activity result in data set [1] (TNFα, simultaneous use of MTI-II and the steroid agent (TA 120 nM)) is “inhibited further more”. Moreover, the “transcriptional activity of NFκB compared with the case where MTI-II was not expressed” value in data set [5] (MTI-II expressed together with p300, TNFα (pTri-MTI 1.0 μg)) is on record as “inhibited to about half or more”; in data set [5] (MTI-II expressed together with p300, TNFα, steroid agent further added) it was “inhibited to about half or more”. Moreover, the “transcriptional activity of NFκB compared with the absence of the coactivator” value in data set [5] (MTI-II with p300, TNFα, used together with the steroid agent) was “inhibited to about half”.
